Measurements published in publication PMC5551578 (The Journal of Experimental Medicine, 2017).

B1: TT-Ab7 (antibody, V domains shown)
VH: EVQLVESGGGWVQPGGSLRLSCAASGFTFNSFGSYGMSWVRQAPGKGLEWVSHISASGAATYYADSVKGRFTISRDNSKNTLLLQMNDLRGEDTATYYCARSVQQYLGLLGYWGQGTLVTVSS
VL: QSVLTQSPSASASLGATVKLTCTLSSGHTNYAIAWHQLQPQKAPRYLLKISNDGSHKRGDGIPDRFSGSSSGAERYLTISSLQSEDEAEYYCQTWGAGMGMFGGGTKLTVL
notes: IgG1
B2: TT-Ab4 (antibody, V domains shown)
VH: EVQLVQSGAEMKKPGSSVKVSCRMSGGKFNNYAMSWVRQAPGQGLEWVGGIIPVLGTANYAQKFQDRVAITADKSTNTAYMELSSLRSDDTAVYYCARVWGTVVTQGPSQVQYNHYGMDVWGQGTTVTVSS
VL: DIQLTQSPSSLSASVGDRVTITCRATQSISSSLNWYQHKPGKAPNLLISAASNLQSGVPSRFSGSGSRTDFTLTITNLQPEDFATYYCQQSYTTPLTFGGGTKVEIK
notes: IgG1
B3: TT-Ab10 (antibody, V domains shown)
VH: EVQLVESGGGLVQPGGSLRVSCGASGFTFANFWMSWVRQAPGKGLEWVANINQDGNERKYVDSVKGRFTISRDNDKNSLYLQMNSLRAEDTAVYFCAREYGSYWRTYYFDDWGQGTLVTVSS
VL: DIVMTQSPATLSLSPGERATLSCRASQSVSNYLAWYQQKPGQAPRLLIYDASNRASGTPARFSGSGFGTDFTLTISSLDPEDFAVYYCQQGSNWLTFGGGTKVEIK
notes: IgG1
B4: TT-Ab12 (antibody, V domains shown)
VH: QVQLQESGPGLVKPSETLSLTCNVSGASISRYYWAWIRQPPGKGLEWIGYIYDSGTTTYNTSLKSRVTISRDTSKNQFSLNMMSVTAADTAVYYCARARYYYDSTGYFYGWLDPWGQGRLVTVSF
VL: DIQMTQSPSTLSASVGDRVTITCRASQSINIWLAWYQQRPGKAPDLLIYKASTLQSGVPSRFSGSGSGTEFTLTISSVQPDDFATYYCQQYKSYSCSFGQGTKVEIN
notes: IgG1
B5: TT-Ab9 (antibody, V domains shown)
VH: EVQLVESGGSLVQPGGSLRLSCVGTGFTFNTYWMSWVRQAPGKGLEWVANIKQDGREKHYVDSVMGRFTVSRDNAMNALYLQVNSLRVEDTAVYYCARGMTAWSLGGYQYDYWGQGTQVTVSS
VL: DIQMTQSPSSLSASVGDTVTITCRASQGIRSDLGWYQQRPGKAPKLLVYTASTLQTGVPSRFSGSGFGTDFTLTISSLQPEDFATYYCLQNYNYPRTFGQGTKVEIK
notes: IgG1
B6: TT-Ab3 (antibody, V domains shown)
VH: EVQLVQSGAEVKKPGSSVKVSCKVSGGAFNSYAISWVRQAPGQGLEWMGGIIPILRTANYTEKFQGRVTINADKSTNTAYMELSKLRSEDTAVYYCARVWGTTVTKGPSQIKYYYYGMDVWGQGTTVTVSS
VL: DIQMTQSPSSLSASVGDRVTISCRASQSISNYLNWYHQKPGKAPKLLIYAASSLQSGVPSRFSGSGSGTDFTLTISSLQPEDFATYYCQQSYSTPLTFGGGTKVEIK
notes: IgG1

Molecular target: T1, tetanus toxoid (Clostridium tetani, production strain …, UniProt P04958, biotin (biotinylated antigen))
T1 construct: also called TT
Experiment: BLI

T1 sequence (P04958 whole entry): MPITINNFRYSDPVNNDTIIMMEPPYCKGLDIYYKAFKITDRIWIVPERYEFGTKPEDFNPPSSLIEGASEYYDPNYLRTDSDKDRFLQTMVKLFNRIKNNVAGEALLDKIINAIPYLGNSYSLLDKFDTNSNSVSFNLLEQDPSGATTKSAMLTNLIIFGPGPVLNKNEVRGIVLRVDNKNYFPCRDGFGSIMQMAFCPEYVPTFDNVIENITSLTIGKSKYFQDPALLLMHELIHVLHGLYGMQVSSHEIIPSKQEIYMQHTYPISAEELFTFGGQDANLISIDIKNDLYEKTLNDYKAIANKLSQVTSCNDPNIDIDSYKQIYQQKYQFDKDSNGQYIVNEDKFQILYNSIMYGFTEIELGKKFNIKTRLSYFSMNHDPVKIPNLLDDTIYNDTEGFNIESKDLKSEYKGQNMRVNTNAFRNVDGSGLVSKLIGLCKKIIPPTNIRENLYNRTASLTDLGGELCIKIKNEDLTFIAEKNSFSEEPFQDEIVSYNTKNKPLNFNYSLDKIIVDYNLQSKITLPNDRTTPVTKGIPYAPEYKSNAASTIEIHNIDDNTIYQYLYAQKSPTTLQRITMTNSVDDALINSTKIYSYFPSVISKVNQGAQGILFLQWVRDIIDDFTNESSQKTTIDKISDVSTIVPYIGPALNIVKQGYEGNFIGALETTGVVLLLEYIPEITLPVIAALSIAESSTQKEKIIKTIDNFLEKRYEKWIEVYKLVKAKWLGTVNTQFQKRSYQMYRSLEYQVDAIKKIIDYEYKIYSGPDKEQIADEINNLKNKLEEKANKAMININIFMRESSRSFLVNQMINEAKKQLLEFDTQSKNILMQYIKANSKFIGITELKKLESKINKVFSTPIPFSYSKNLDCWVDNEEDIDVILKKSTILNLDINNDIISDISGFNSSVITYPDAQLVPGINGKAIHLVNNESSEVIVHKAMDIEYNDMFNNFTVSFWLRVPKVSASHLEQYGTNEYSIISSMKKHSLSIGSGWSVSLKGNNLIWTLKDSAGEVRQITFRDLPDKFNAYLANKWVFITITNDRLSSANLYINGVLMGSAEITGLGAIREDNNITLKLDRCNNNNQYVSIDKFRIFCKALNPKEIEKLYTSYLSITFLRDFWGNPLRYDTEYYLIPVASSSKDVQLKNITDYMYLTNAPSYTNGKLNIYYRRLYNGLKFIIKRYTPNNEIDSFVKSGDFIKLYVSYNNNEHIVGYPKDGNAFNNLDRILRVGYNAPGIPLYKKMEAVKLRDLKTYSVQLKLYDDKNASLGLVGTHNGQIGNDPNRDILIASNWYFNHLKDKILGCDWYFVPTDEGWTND

Binder	Kd [nM]	koff [s⁻¹]
B1	0.0185	3.46e-06
B2	0.0137	2.27e-06
B3	1.59	0.000243
B4	1.95	0.000307
B5	6.64	0.000919
B6	1.61	0.00013
